# Assay: protease stability score; higher = more stable; yeast display proteolysis, trypsin and chymotrypsin;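 note: relative to predicted unfolded state with 0 unfolded-like and 1 meaning tenfold more protease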
row,Sequence,protease stability score
1,DEHEEALEEFLTEMIENIKTGDWHSELKLMDPHVRILFDGVIFHGREFFFQWLRHLLQRADHVNFTIDDKKYQGDKMVIETTFHLIINGQRIERYTVLLARKVNGRWYIEEVRLH,2.33
2,SEEEELHEILLHLLLLMHTTGDEHLLRRLADPNARVDINGREWHGRDLMVKFLVEIRIHRTRIHDERDIDGRVHMETRVDGLWNGVRYTFDTRIHAVKVNGRWLLESYSVE,1.21
3,DHEVAKTMMEEWQKALENGDDKKLKELYDPDGEWEADDEQDQGTEVIEKLMEKVKKQGLKFQVRKAKVEGDKFTVVYDLHVGNKTATFEVEVHVEGGRIKKVKAKADEEAKKLITEG,2.05
4,SEEEEDAHRNIELLVRYLITGDEETVSRLVDPHVKTDINGQEDHGWQIMSILMEKFKNVTLRLHDIETQGNFAVINMKMRFNGQTFDLHFFARKVNGRWFVEHIKIRQN,1.62
5,DETTEDDRRRYEEFLMAEITGDFHLVEKLHDPDVRFVLVIGDKIHIHHGREDVRKWIEHDFRKFKNARIELHDVKAYDGRVEIHGRVQVDGVRFDVHITIIIINGRVKEQRLNIR,2.12
6,DKEEKEAREWSKRFLHLFLTGNEEEFKRLMDPHTQSMLLIDGKRDTHHGRDEATKLLSDWLNHMRLRELRVHDIKVQGDKATLDIRLNVEFNGVELERTSEIIIVVFDGRIKSVIFRIE,1.55
7,SEEHKWVHMAFEVLLKVLKTGDEENVNRLFDPHVRVEWDGREIHGMETFTRELSHLRFKLDDFKLHHISVAEGRAIIHGRFHGRIEYGDKEHEFDSHVILFVLKVDGRWLIKKIEFR,1.83
8,SELEKLAEEMLELFIEIFLTGDWRTFLRLADPHTRLNVDGKNNHGREEVRRHLEEELRQMRWHDVKIHDFDVIGEKAHVRLRVDGIINGRRIDFEMELEITVVNGVIKDVRVRRR,1.48
9,SEEREDSKKFLELVLTSWITGDWRQINKNFDPHARSHVGDKEIHGMDHVAHRMNEHLERADHIHFYLEDEHIQGNKIHVDGILQLVINGVDIRMRIRLVVLKINGRWQVHSIEIK,1.14
10,NEMDEHARHFAELFLRLMRTGDEETTEKLADPHVKVVIGDFEFHGWKMLSIFLREIRIHDIRLEDHRTQGNKSIIHGRTDGEINGQRYETELYIELHLVNGRLKSMRFEWR,0.698
11,DEEERISEELFNFITKHWLTGDFDAVRNRLDPNVRYLINGREWHGREYARHLASHLRVERVKIENFEIQGNKITFDTRMDGEFDGQHIDVKTIIIFVKIDGKWLLHEFVIH,1.34
12,SEDEEAAHRFLQMFLSTSHTGDEKESRELADPHVRIDIDGQKHHGRHEWVKVFRHLRIHNIEIKDYHVIDGRLRLDYKVDLEVGDKKIEHRLHIDVEKIDGRWEIQRVHLI,1.58
13,DEDEKMSHEASRVTLQVLITGDEEAMHRLLDPNARMDYGDKQFHGWEEVSKLTTELLTRLGVDHYHMNDERIYGEKLDLDLTIHVNGRNRKFIIIVRKINGRWLIDSMTFK,0.576
14,DEEERDISRWLDHLIESLETGDEDSLQHLLDPHVRVVVNGKDHHGWKALTKMLRQLRVNRIRIRDFEIIGDKIEVDIRMHVRVGDKHYVFNVDLVARKIDGRWIMHNITIH,2.19
15,DEDHEHLERHTRLFLERWRTGDEETLLKLFDPHARSEYGDKHHVGREEVTKLMVIILEKVKGLTIRRLRIKHIEYVDGRAHMDMEVTSEIDGQEVIESVHILMTKVDGRWRIQRVILV,0.927
16,DHVDEETEKMTNEITKALLTGDEDRLLELADPHVRVIVHVGDKTIHLVGRELMVEEYRRWVKEAGFDKVHHEKKHSDFVDGRAEVHSKVDVGDKHVEYRIIITKVNGKWVIKSIIIIVR,2.15
17,DDWEEVLKDFLKKYFEALHTGNEELFLLMLDPHVKFDWNGQKMVGREKEIETLRREIKSAGVTRIERELEIKDTRLVDGRLRIDLSIHLNFNGRKFEIDVELHLNKINGRWEIESIKYR,1.15
18,SEDEELAKEFAETMLHWEITGNEEAIRRNMDPNTKLDINGQHYIGRDDVLRVWHEIKKRLGVDHLEIHHIRVSVIGDKIRIEIDGHIRVNGREIETHIVIITEKINGKWIIRSMRYEFK,1.24
19,SERRERLEVLSEILLRAWETGDEQELVENADPHTKLEVHQGDKEKHFHGWELILKHIYQIKNVKIHIEHVHIQGDKIENHVKLNINGKRIEVEITVWVVDGVIKHMEVRIK,1.93
20,TDEDRELHEAAELLIESTWTGDFDFLLELLDPNVRLVINGKHDHGREDIWEVLRRLLERLGLDRVRVKIKHIDSFDGRLHLNINLNFNGRQFRYHYESYKVNGQWVVRRIEVREK,1.89
21,SHDEDRLREMIERWVEFMITGDEDRLRELADPNMRIHVNGKDLHGREEYARWINELGVKHIEITHVDLQGDKIDIVTELRFDGRTHDIHIKARKIDGRWHLTEFREE,1.34
22,DEKQVLELIRDVMKHVQNGNQEEVKKHGKPSVEVILFNERYTGPEALVRLAEFAQKLGAQFEYKETRHEGNKVKTKVEVTFGGTTVRYEVEVEAEGGKVVKWEVRASDEFDERVKKS,1.29
23,DEKEKVVRIAQEIINTIIHTGDERILEEFIDPNVRFYFNGQEFHGRELMSEIEKKHRDRFKNLRIFVEDTHVEVYGEWLRIKVHLRLEIGDKRHELHLDIIALKVNGRWLNKSAELRVE,1.64
24,DEREKFAEEIMEIFIRDVLTGDFDSLHKLIDPNTKIDLHIGDKIRPLHGREEFVKWVKEMRIHRWDITDMKVIGDKAHIDTTVDGEFNGRRTRFRQIINLDMVNGRLREIQITIG,2.2
25,SERDEVAHLAFEYLINTHQTGDWRLFKEYLDPNVRFHVGDKFFHGRESVSKFFEEEMHRLGFKHIEMEHFEQQGDYLTINLTVRVDGQEYKLIYFALKVDGRWILRSITFE,1.38

row,Sequence,protease stability score
1,DEMDELAERIYETWVKRHLTGDEKVIEELMDPNVRIDIVVGDKKIHLIGRETASSFARRWFDHLRIDDMRMHSVETINGQIHSEVEVHRRIGDKERFILTRIEMHVINGKIHSIRLEIE,1.1
2,DEDDDLALHMFELLLHVWTTGDERIMHELLDPHARLDFNGRTFHGREAFIHYMHEIFRHIRINDSTVRHIRVIDGRLDIESHVDIRVGDKRFEMETHLIVLKVDGKWQVTLYKLS,1.4
3,SEIETILEKVLRELEHRKETGDEESFERYADPNVRMSVDGKDIHGREEVLRSWLETWKLMGVDHSHLHVTDLRIIGNKLEIDGIVRFNVGDKIVHRHSRLIMLKINGRWMIKQVEIH,1.22
4,DEREEFVLSMAELWIHAVLTGDEELERQLIDPHARNNINGRTIHGMEMFNKFWIRLLQEIRFEIEIRRFHIQGEKMHFDGVLRLRYDGREEVLRVHVEIVIVDGRLHEVHIKIK,1.33
5,DEDREVAENMVRLFIHFLLTGNEERLNQYFDPHTLLIVGDKRYHGMEESNKWIVELWTERVEIRHIEVDYYGDKVHATISGHHVGIVDGKRIETQVDFHFRIDKIDGRWVAREVEIRHD,2.06
6,DEEDKDLHRWLEESTHAMLTGDEQHLTELADPNVKFNFDGREIHGREEYVKFMHRWIRHAGFKHIHVETKDVRVQGNKLHVDTHSIHDYNGRRVRTDTRVFVEKINGRWRLHSIEIE,1.4
7,DDETDRSEKVAQMFVDLLTTGDWERLRHLMDPHVRMDINGQESHGRENVFRFFQKIRERLGLDRFHIEVTHIDVQGDKALWHGTLNINGQEHEVIIRIDVVDGRWHEVRMEVR,2.62
8,DREHDELRKTWEIYSQALSTGDEDELNKLADPNTRLDIDGKELHGMEDVHRHLHHNLRRVDHIELRIHEIRYQGDFAHVDGEVIIVYDGVKKSRRVHLILTKINGRWILTSVEFR,1.28
9,DEEEHHMKLAYDILLQTLRTGDEDLMERLIDPNVRFELLIGDFILHIHGWELVVEWDIRIARQWRIEHVHIKRYEVFNGRSRVNVKIDGVVNGRRYRFDIIELSLVIDGRVHHRSQEII,0.835
10,DEQERAQEALRRFLRVFQEGDPDRARQQADKDVQMVVGDKEYEGREQVSRAIESLRERVDEFHITVRRITVSGNRVVVDAKLKLNINGKEDDVTLKLVIDVSGDKISIKRVEVR,1.16
11,TEDEKMLKESLERLLYTLHTGDEEFNKRLMDPEVRIVIGDKELHGMELARKFWEKLYKDLGADHVHMDVKHVRSIGDKVEVDSQLIFRVGDKEIRVDTKLFSHKFDGRWRLRYEYVD,1.39
12,DELEHLERQLAEEILEDFMTGNEENFDHLADPNVKHDINGVEIIGREHYVEWWRRIKNVKIELKRYHIIGDKATIDGHEVFEGRRHKMILELDIVNGQIKRVRFELR,0.986
13,SEDEELSRIISHLEVDLVHTGDEDTMRKLFDPNAKSHIHVGEYNIESHGREWISILWTDLGADHRELDEIQTDVQGDKVFVNMDLTMDVDGVSHRMFIQFVSVKVDGRWTIKEINVSVI,1.81
14,KEREELLKTAADLMYHIWHTGDFEKLFKNVDPHVKINVGDKTYVGREQMHKIFKELKERLGFDVSSLEHRHLDMQGDFIFNELHVRLHQGDFEIQSWIHVIIYKVNGKWVVHEIKLHWD,1.6
15,DEETREAKEAFDIIIKHIETGDEDLLSEMLDPNVRINQGEFRIHGREAVEEWLNYMLHHMRVHVRSEEVRVVGDKVESDFRVQINQGDKIYHHDTRLFLFKIDGRWFIESMEFH,1.36
16,SQLEVASTEALELLRFSLETGDWEFLLRLADPNTRIEINGVTFHGREDMEEIMEEKFRRFKNVKVELDVKEVHFQGDKVRIRVVEFWKVDGQEIFIDSRIVMIKVNGRWVYKELRVH,0.7
17,SESKEFIKRFTEEILKNTLTGNEDRYEELLDPNVRVEVGDKEHHGREEALEFLHRIWRELRTKHIVLRDMRIIGDKAEVEYEVRVEVNGVELHMTRRMEIVVIDGRLKAVKLEHT,1.24
18,HEEEREAHEMLRIIVHAIRTGDEELLMRYLDPDVRMILLVDGVEVHRIGREEASKLISELWHHIRLKDLKVREIDNQGEYSHVRTERDGEVNGKKNTLETELDIIVIDGRVTDVTIRIR,1.1
19,DEEHQSLRHIAEILLESWETGDFERVWKFADPHTRVDFNGREKHGMHHVHEMFHILGIDHIELRHMEVINGRINSDGHVEVNGQRHRMHLTIFVFDGRLTEVRFDYE,2
20,DHREELLHRIYELWEMVQTTGDFEKLTDLLDPDVYVNINGRNLIGRELRIRFMREIRMEIKHYKHERFHFQGDKAHIHGRLDREINIGDKHHREDITIDVHLFVIDGVIRSFEIRLI,1.33
21,SQDKETSDEAFRIWVESYETGNEHLEEHMVDPNARSRVGDKELIGMEHFIKIMEKIKNATLEIRHRSYTEIDGRLRWHTQLYIEYGDKRIEREIIIIVHKVNGRWSIEHFEVR,0.973
22,SEEDRLLEELLKLYLHLEATGNEDRFAELVDPDARMDFNGREHHGREEIRHHMVKHWKDLGVKHLHIDRFRYFNGVLDVRGHLKVNGREKDVVWILEIIDGRIHEIRHHLH,1.28
23,SEEDKHASKLADLVVEMWMTGDEEKLRHLADPDVKLHIEFNGVNRNHHGRDVMIEVMQRIREEIRIHDIKIHNWHTINGRWHIDSIVDGKFNGRRHETRTEVILEVIDGRIKVISFIFQ,1.07
24,TEEHREIKESVEQWHKDLHTGNEEMLVRLMDPRMRLQIGDKTLHGREEATRWAREFHKRYDHIHDFKIKDYDHYGNYIIIIGTLDGIVDGQRVRTDVRLIFVKVNGRWTIESEEHE,0.346
25,SELHEEAEELTEKIIRILLTGNEHFFSELVDPDVRTNVDGKELHGREEALRKFEEMRRKLGYDRVRVELRKYTVFDGRVEVVTELNVNGRRLEYIWRMHKVDGRWSLHIWEIR,2.65

# Reference: the NTF2 design screens of Basanta et al. (2020)
